Test results published in US20220275390A1 (TRUSTEES OF PRINCETON UNIVERSITY, published 2022).
Where a chain is given by its changes, count along the chain named.

T1: S1Cr_D23A
T1 construct: variant of m7
T1 chain: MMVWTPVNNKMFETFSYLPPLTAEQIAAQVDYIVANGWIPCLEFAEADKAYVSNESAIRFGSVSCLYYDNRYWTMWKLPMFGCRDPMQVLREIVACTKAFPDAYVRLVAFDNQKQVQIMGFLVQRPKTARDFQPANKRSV

T2: S1Cr_D23A+E24A
T2 construct: variant of m7
T2 chain: T1 chain with E24A

T3: S1Cr_D23A+E24A+R91A
T3 construct: variant of m7
T3 chain: T1 chain with E24A, R91A

T4: S1Cr_M87D/V94D
T4 construct: variant of m7
T4 chain: T1 chain with A23D, M87D, V94D

B1: Chlamydomonas reinhardtii Essential Pyrenoid Component 1 (EPYC1) (other)
chain: MATISSMRVGAASRVVVSGRVKTVKVAARGSWRESSTATVQASRASSATNRVSPTRSVLPANWRQELESLRNGNGSSSAASSAPAPARSSSASWRDAAPASSAPARSSSASKKAVTPSRSALPSNWKQELESLRSSSPAPASSAPAPARSSSASWRDAAPASSAPARSSSSKKAVTPSRSALPSNWKQELESLRSSSPAPASSAPAPARSSSASWRDAAPASSAPARSSSASKKAVTPSRSALPSNWKQELESLRSNSPAPASSAPAPARSSSASWRDAPASSSSSSADKAGTNPWTGKSKPEIKRTALPADWRKGL
notes: also called WT EPYC1
B2: 24 amino acid EPYC1 fragment spanning RBM 2 (peptide)
peptide: TNRVSPTRSVLPANWRQELESLRN
notes: also called EPYC1 peptide; RBM 2 EPYC1 fragment

Experiments:
S1Cr_D23A = molecular target: T1, S1Cr_D23A; experiment: yeast two-hybrid, EPYC1 as BD and SSU variant as AD
Source text: (§1) FIGS. 9A-9C show the results of a yeast two-hybrid (Y2H) assay to measure the interaction between EPYC1 and Rubisco SSU variants. […] The images shown were taken following three days of cell growth. The Rubisco SSU residues that form salt bridges with EPYC1 residues are bolded (D23, E24, and R91) and the residues that form the hydrophobic pocket with EPYC1 residues are bolded and italicized (M87 and V94). The “Control” images were taken from cells grown for three days on SD-L-W media and the “Test” images were taken from cells grown for three days on SD-L-W-H with 3-AT. Growth of yeast cells expressing the indicated EPYC1 and Rubisco SSU variants was measured after three days on SD-L-W-H with varying 3-AT concentrations. The highest concentration of 3-AT (0, 1, 2.5, 5, 10, and 20 mM) permissive for the growth of each EPYC1 and Rubisco SSU variant combination is shown, as indicated in the “Key” on the right.
(§2) Mutagenesis of EPYC1, Mutagenesis of Rubisco, Yeast Two-hybrid, Peptide Arrays and SPR Assays To determine the importance of individual EPYC1 residues for binding to Rubisco, the impact on Rubisco binding of every possible single amino acid substitution for EPYC1 RBM 2 was determined (FIG. 8). To determine the importance of individual Rubisco residues for binding to EPYC1, targeted mutations of the amino acids identified from atomic modeling were tested in a yeast two-hybrid assay as in van Nues and Beggs (Genetics 157: 1451-1467, 2000). Peptide arrays and SPR assays were performed as in Example 1.

S1Cr_D23A+E24A = molecular target: T2, S1Cr_D23A+E24A; experiment: as above
Source text: as §1, §2

S1Cr_D23A+E24A+R91A = molecular target: T3, S1Cr_D23A+E24A+R91A; experiment: as above
Source text: as §1, §2

S1Cr_M87D/V94D = molecular target: T4, S1Cr_M87D/V94D; experiment: yeast two-hybrid, Control SD-L-W, Test SD-L-W-H with 3-AT (concentration not given)
Source text: as §1
Mutagenesis of EPYC1, Mutagenesis of Rubisco, Yeast Two-hybrid, Peptide Arrays and SPR Assays To determine the importance of individual EPYC1 residues for binding to Rubisco, the impact on Rubisco binding of every possible single amino acid substitution for EPYC1 RBM 2 was determined (FIG. 8). […]

[1] = molecular target: Chlamydomonas reinhardtii Rubisco small subunit 1 (Chlamydomonas reinhardtii, UniProt P00873 46-185); experiment: cell-based or functional assay
S1Cr_V94D = S1Cr_V94D (Chlamydomonas reinhardtii); experiment: cell-based or functional assay
S1Cr_M87D = S1Cr_M87D (Chlamydomonas reinhardtii); experiment: cell-based or functional assay
[2] = molecular target: T5, Chlamydomonas reinhardtii Rubisco holoenzyme (L8S8) (Chlamydomonas reinhardtii, UniProt P00877 3-475); experiment: SPR, Rubisco immobilized, peptide at 0-4.0 mM in solution (FIG. 4C)
T5 construct: Purified from C. reinhardtii strain cMJ030 (sucrose gradient, anion exchange); also called purified Rubisco; Cr L8S8 Rubisco
Source text: FIGS. 4A-4C show the EPYC1 fragment that was used to generate the cryoelectron microscopy structure shown in FIGS. 5A-5D, as well as the binding affinity of the EPYC1 fragment for Rubisco. […] The four nearly identical repeats (Repeats 1-4), flanked by short N- and C- termini are indicated. The dark grey boxes represent the ten RBMs on EPYC1. The dark grey bar above the boxes (“EPYC1 peptide”) spans RBM 2 of EPYC1 and represents the 24 amino acid EPYC1 fragment (SEQ ID NO: 51) that was used to generate the cryoelectron microscopy structure of Rubisco bound to the RBM 2 EPYC1 fragment shown in FIGS. 5A-5D. FIGS. 4B-4C provide results of SPR experiments to determine the binding affinity of the 24 amino acid EPYC1 fragment diagramed in FIG. 4A for Rubisco. […] The response difference (Resp. Diff., in RU) is shown on the y-axis.
Surface Plasmon Resonance (SPR) Assay Rubisco was immobilized on a surface and peptides in solution were flowed over the surface. Surface plasmon measurements of binding of individual peptides to Rubisco were assayed (FIG. 3B).

[3] = molecular target: T5, Chlamydomonas reinhardtii Rubisco …; experiment: SPR; highest binding affinity of all peptides tested
[4] = molecular target: T5, Chlamydomonas reinhardtii Rubisco …; experiment: SPR, steady-state fit

Binder	binding result (S1Cr_D23A)	binding result (S1Cr_D23A+E24A)	binding result (S1Cr_D23A+E24A+R91A)	binding result (S1Cr_M87D/V94D)	highest 3-AT concentration permissive for growth (Y2H), box pattern read against the printed key [1] [mM 3-AT]	highest 3-AT concentration permissive for growth (Y2H), box pattern read against the printed key (S1Cr_V94D) [mM 3-AT]	highest 3-AT concentration permissive for growth (Y2H), box pattern read against the printed key (S1Cr_M87D) [mM 3-AT]	Kd [2] [mM]	Kd [3] [mM]	Ka [4] [M⁻¹]
B1	no binding	no binding	no binding	no binding	20	0	0			
B2								3.09	3	324
